B1: P4-6 recombinant human/rabbit chimeric Fab (Fab, V domains shown)
VH: EQLKESGGGLFKPTDTLTLTCTVSGFSLSYYGVNWVRQAPGNGLEWIGTIGGSGDTYYASWAKSRSTIIRNTNENTVTLKMTSLTAADTATYFCVRYANIGYEYFNVWGPGTLVTVSS
VL: QFVLTQSPSASAALGASAKLTCTLSSAHKTYTIDWYQQQKGKAPRYLIQVKSDGTYTKATGVPDRFSGSSSGADRYLIIPSVQADDEADYYCGTDYTGGYVFGGGTQLTVT
notes: Both formats are written under this one molecule; also called Fab P4-6; P4-6 phage antibody
B2: P4-10 recombinant human/rabbit chimeric Fab (Fab, V domains shown)
VH: QSVKESEGGLFKPTDTLTLTCTVSGFSLSRHALTWVRQAPGNGLEWIGAIDNAGTTYYASWAKSRSTITRNTDLHTVTLKMTSLTASDTATYFCARVFYDINSGYYLDGMDLWGPGTLVTVSS
VL: QFVLTQSPSVSAALGASAKLTCTLSSAHKTYTIDWYQQQQGEAPRYLMQVKSDGSYTKGTGVPDRFSGSSSGADRYLIIPSVQADDEAGYVCGADDNGGYVFGGGTQLTVT
notes: Both formats are written under this one molecule; also called Fab P4-10; P4-10 phage antibody

What was measured:
[1] = target: T1, GFRα4 isoform a human Fc bivalent fusion protein (Asn24-Ser245, Factor Xa site, human IgG1 Fc fragment, … (human)); assay: ELISA, soluble recombinant human/rabbit chimeric Fab, HRP-anti human Fab detection (FIG. 3)
T1 construct: also called GFRα4a; GFRalpha4 isoform a
T1 chain: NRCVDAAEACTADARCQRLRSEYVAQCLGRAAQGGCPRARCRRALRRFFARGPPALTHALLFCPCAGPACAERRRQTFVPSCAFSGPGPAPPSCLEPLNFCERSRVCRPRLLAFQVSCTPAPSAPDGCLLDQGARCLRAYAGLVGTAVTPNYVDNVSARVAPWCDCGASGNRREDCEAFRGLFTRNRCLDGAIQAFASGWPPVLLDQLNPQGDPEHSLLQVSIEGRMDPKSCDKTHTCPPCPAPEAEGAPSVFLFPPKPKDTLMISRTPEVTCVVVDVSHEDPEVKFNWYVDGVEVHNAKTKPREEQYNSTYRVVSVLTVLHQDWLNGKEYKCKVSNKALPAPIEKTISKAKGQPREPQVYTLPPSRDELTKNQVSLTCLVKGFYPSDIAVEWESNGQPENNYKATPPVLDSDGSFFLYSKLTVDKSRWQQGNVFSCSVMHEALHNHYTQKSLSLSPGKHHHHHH

[2] = target: T2, GFRα4 isoform b human Fc bivalent fusion protein (Asn24-Val274, TEV site and linker, human IgG1 Fc fragment); … (human); assay: as above
T2 construct: also called GFRα4b; GFRalpha4 isoform b

[3] = target: T3, human GFRα3 (R&D Systems, Fc-fusion protein) (human, UniProt O60609 32-382, limits assumed); assay: ELISA with soluble Fab, HRP-anti human Fab detection (FIG. 3)
T3 construct: not shown: Fc part of the bought fusion protein
T3 sequence (looked up): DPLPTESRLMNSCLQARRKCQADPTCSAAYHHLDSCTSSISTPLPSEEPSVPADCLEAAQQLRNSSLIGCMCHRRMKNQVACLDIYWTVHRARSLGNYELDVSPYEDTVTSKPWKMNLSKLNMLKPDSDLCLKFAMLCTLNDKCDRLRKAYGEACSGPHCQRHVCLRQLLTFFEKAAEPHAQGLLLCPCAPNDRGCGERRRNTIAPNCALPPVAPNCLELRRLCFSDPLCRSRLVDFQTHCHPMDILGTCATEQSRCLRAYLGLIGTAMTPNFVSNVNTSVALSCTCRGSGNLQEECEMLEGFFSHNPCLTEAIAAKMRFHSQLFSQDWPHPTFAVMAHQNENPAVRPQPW

[4] = target: T4, human GFRα2 (R&D Systems, Fc-fusion protein) (human, UniProt O00451 22-441, limits assumed); assay: as above
T4 construct: not shown: Fc part of the bought fusion protein
T4 sequence (looked up): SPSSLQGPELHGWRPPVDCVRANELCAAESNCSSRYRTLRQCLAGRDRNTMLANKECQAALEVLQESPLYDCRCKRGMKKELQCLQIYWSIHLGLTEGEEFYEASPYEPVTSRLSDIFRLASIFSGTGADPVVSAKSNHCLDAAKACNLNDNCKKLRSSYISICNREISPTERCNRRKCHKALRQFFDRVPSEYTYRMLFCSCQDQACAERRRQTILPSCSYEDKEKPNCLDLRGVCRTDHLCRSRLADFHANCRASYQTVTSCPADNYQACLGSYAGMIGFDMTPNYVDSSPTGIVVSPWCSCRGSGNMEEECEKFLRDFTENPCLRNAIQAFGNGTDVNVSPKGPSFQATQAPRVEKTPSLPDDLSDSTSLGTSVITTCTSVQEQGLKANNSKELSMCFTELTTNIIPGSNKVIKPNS

[5] = target: T5, human GFRα1 (R&D Systems, Fc-fusion protein) (human, UniProt P56159 25-429, limits assumed); assay: as above
T5 construct: not shown: Fc part of the bought fusion protein
T5 sequence (looked up): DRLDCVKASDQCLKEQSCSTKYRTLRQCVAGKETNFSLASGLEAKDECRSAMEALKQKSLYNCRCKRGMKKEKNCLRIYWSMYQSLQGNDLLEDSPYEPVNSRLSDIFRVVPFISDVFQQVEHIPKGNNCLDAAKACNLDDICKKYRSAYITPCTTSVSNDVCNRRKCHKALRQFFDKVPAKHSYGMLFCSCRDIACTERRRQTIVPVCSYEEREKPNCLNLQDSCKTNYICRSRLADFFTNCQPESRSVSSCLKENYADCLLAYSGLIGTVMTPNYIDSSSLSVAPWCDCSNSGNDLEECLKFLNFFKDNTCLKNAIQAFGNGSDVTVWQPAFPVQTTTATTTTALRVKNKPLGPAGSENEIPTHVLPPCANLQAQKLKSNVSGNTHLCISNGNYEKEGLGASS

Binder | binding result [1] | binding result [2] | binding result [3] | binding result [4] | binding result [5]
B1 | binds | binds | no binding | no binding | no binding
B2 | binds | binds | no binding | no binding | no binding

From patent publication US20240262884A1 (University of Pennsylvania, published 2024)
